In US20050037413A1:

Assays:
[1] = molecular target: glutathione (GSH) immobilized on dendron-modified controlled pore glass, sample E1 (Fmoc-(3)acid dendron); assay: pull-down from lysate with E1 beads, SDS-PAGE densitometry, relative to GST on E1
[2] = molecular target: glutathione (GSH) immobilized on dendron-modified controlled pore glass, sample E3 (Fmoc-(9)acid dendron); assay: pull-down from lysate with E3 beads, SDS-PAGE densitometry, relative to GST on E3
glutathione Sepharose-4B = assay: pull-down from lysate with glutathione Sepharose-4B, SDS-PAGE densitometry, relative to GST on Sepharose-4B
[3] = molecular target: glutathione (GSH) immobilized on dendron-modified controlled pore glass, sample E1 (Fmoc-(3)acid dendron); assay: GST captured on beads, sample weight adjusted to the same number of GSH, SDS-PAGE densitometry
[4] = molecular target: glutathione (GSH) immobilized on dendron-modified controlled pore glass, sample E3 (Fmoc-(9)acid dendron); assay: as above

Substance	relative binding capacity (GST on the same matrix set at 100%) [1] [%]	relative binding capacity (GST on the same matrix set at 100%) [2] [%]	binding efficiency (relative, GST on the same matrix set at 100%) (glutathione Sepharose-4B) [%]	Percentage of ligand utilization (%) [3] [%]	Percentage of ligand utilization (%) [4] [%]
GST-Munc-18 fragment (98 kDa) (from UniProt P08515 1-218)	22	23	17	–	–
GST-PX^p47 (41 kDa), GST fused to the PX domain of p47^phox (from UniProt P08515 1-218)	92	85	104	–	–
glutathione S-transferase (GST) (28 kDa) (from UniProt P08515 1-218) (enzyme)	–	–	–	29	31
